Laboratory results taken from patent US20240377400A1, “METHODS FOR TREATING A SUBTYPE OF COLORECTAL CANCER” (Cornell University, priority 2021, published 2024).

Columns and labels:
[1] = test system: MTO-sgC tumors; test: Subcutaneous MTO-sgC control tumors in syngeneic C57BL/6J mice treated with PEGPH20; type: in vivo, mouse; details: PEGPH20 0.0375 mg/Kg twice a week, 3 weeks
Experimental: (§1) FIGS. 8F-8J illustrate subcutaneous injection of sgPrkci/Prkcz and sgC MTOs in WT mice. Mice were treated twice a week with Veh or PEGPH20 0.0375 mg/kg for 3 weeks (MTOs: sgC n=10, sgC PEGPH20-treated n=10, sgPrkci/Prkcz n=10, and sgPrkci/Prkcz PEGPH20-treated n=8). Experimental design (F); Immunohistochemistry (IHC) for HA, Masson's trichrome, and αSMA (G) staining quantification (H); tumor volume (I) and tumor weight (J). Scale bars, 100 μm.
For colonoscopy-guided orthotopic injection in the colon submucosa using mouse tumor organoids (MTOs), a 10 μl organoid suspension of equivalent to 40-50 MTOs admixed with 10% Matrigel (Corning) was directly injected into the colonic submucosa of 7 weeks old C57BL/6 mice. 4 weeks after implantation, tumors were collected and analyzed histologically. Orthotopic tumor sizes were measured by caliper after mice were sacrificed. For xenografts using MTOs, a 100 μl cell suspension of equivalent to 0.5×10^6 cells of sgPrkci/Prkcz or sgC MTOs admixed with 30% Matrigel (Corning) was directly injected subcutaneously into the right flank of 7 weeks old C57BL/6 mice. […] Tumors were measured twice a week. Mice were euthanized three weeks after treatment and tumors were analyzed histologically. […]

[2] = test system: MTO-sgPrkci/sgPrkcz tumors; test: Subcutaneous MTO-sgPrkci/sgPrkcz tumors in syngeneic C57BL/6J mice treated with PEGPH20; type: in vivo, mouse
Experimental: as §1
For colonoscopy-guided orthotopic injection in the colon submucosa using mouse tumor organoids (MTOs), a 10 μl organoid suspension of equivalent to 40-50 MTOs admixed with 10% Matrigel (Corning) was directly injected into the colonic submucosa of 7 weeks old C57BL/6 mice. 4 weeks after implantation, tumors were collected and analyzed histologically. Orthotopic tumor sizes were measured by caliper after mice were sacrificed. For xenografts using MTOs, a 100 μl cell suspension of equivalent to 0.5×10^6 cells of sgPrkci/Prkcz or sgC MTOs admixed with 30% Matrigel (Corning) was directly injected subcutaneously into the right flank of 7 weeks old C57BL/6 mice. Tumors were allowed to grow for 14 days, and mice were randomly divided to receive vehicle, n=20, or PEGPH20 (0.0375 mg/kg, 2 days each week) via retro-orbital injection, n=18. Tumors were measured twice a week. Mice were euthanized three weeks after treatment and tumors were analyzed histologically. For the combination therapy of anti-PD-L1 (Clone B7-H1, Bioxcell) antibody and PEGPH20, mice were injected with a dose of 5 mg/kg (body mass) of anti-PD-L1 antibody in combination with PEGPH20 (n=15) twice a week for 4 weeks until they were sacrificed.
To address the potential role of HA stromal accumulation in the tumorigenesis of intestinal mesenchymal tumors in vivo, mouse tumor organoids (MTO) with mutations in Apc, Trp53, Kras, and Tgfbr2 (Tauriello et al., 2018) and with deletion of Prkci and Prkcz by CRISPR/Cas9 were characterized. MTO-sgPrkci/sgPrkcz recapitulated the observed phenotype in human organoids showing in vitro upregulation of Has1, Has2, and Has3 transcripts, increased expression of HA, and enrichment in EMT and TGFβ signaling signatures (FIGS. 8A-8E). […] Next, the impact of depleting HA on tumorigenesis was tested. To that end, MTO-sgPrkci/sgPrkcz or MTO-sgC were subcutaneously transplanted into syngeneic C57BL/6J mice and treated with a low dose of clinical-grade pegylated hyaluronidase (PEGPH20; 0.0375 mg/Kg), equivalent to a human dose evaluated in clinical trials, or with vehicle (FIG. 8F).

[3] = test system: MTO-sgPrkci/sgPrkcz liver metastases; test: Liver metastasis model, intrasplenic injection of sgPrkci/Prkcz MTOs; type: in vivo, mouse; details: 5 doses over 2.5 weeks
Excerpt: CRC predominantly metastasizes to the liver, which is the leading cause of death. Five-year overall survival for metastatic CRC patients is only 14.7%. Furthermore, patients with metastatic liver disease do worse than those without liver disease across different types of cancer and are totally refractory to ICB. Based on data that PEGPH20 remodels the tumor microenvironment and enables ICB in primary MSS CRC, the potential role of targeting HA in liver metastasis was investigated. To directly test therapeutic effects on liver metastatic disease, MTO-sgPrkci/sgPrkcz was inoculated in the portal circulation of wild-type C57BL/6J mice and mice were for two weeks and a half (5 doses) with a low clinically relevant dose of PEGPH20 ([…]) or in combination with anti-PDL1 or/and anti-CTLA4 (FIG. 22A).
Intrasplenic injection of sgPrkci/Prkcz MTOs in WT mice. Mice were treated twice a week with Veh or PEGPH20 0.0375 mg/kg and/or αPD-L1 (5 mg/kg) and/or aCTLA4 (100 ug/dose) for 2.5 weeks (n: sgPrkci/Prkcz MTOs Veh-treated=7, sgPrkciiPrkcz MTOs PEGPH20-treated=7, sgPrkci/Prkcz MTOs PEGPH20 and αPD-L1-treated=7, and sgPrkci/Prkcz MTOs PEGPH20 and aCTLA4-treated=6).

[4] = test system: tumors from Prkci^fl/fl Prkcz^fl/fl Villin-cre (DKO) mice; test: scRNAseq and IHC of DKO mouse intestinal tumors treated with PVHA or Galunisertib; type: in vivo; details: non-tumor area

B1: PEGPH20: a PEGylated version of human recombinant PH20 hyaluronidase; clinical-grade pegylated hyaluronidase (Halozyme Therapeutics) (protein, UniProt P38567 36-490, looked up)
Hyaluronidase PH-20: LNFRAPPVIPNVPFLWAWNAPSEFCLGKFDEPLDMSLFSFIGSPRINATGQGVTIFYVDRLGYYPYIDSITGVTVNGGIPQKISLQDHLDKAKKDITFYMPVDNLGMAVIDWEEWRPTWARNWKPKDVYKNRSIELVQQQNVQLSLTEATEKAKQEFEKAGKDFLVETIKLGKLLRPNHLWGYYLFPDCYNHHYKKPGYNGSCFNVEIKRNDDLSWLWNESTALYPSIYLNTQQSPVAATLYVRNRVREAIRVSKIPDAKSPLPVFAYTRIVFTDQVLKFLSQDELVYTFGETVALGASGIVIWGTLSIMRSMKSCLLLDNYMETILNPYIINVTLAAKMCSQVLCQEQGVCIRKNWNSSDYLHLNPDNFAIQLEKGGKFTVRGKPTLEDLEQFSEKFYCSCYSTLSCKEKADVKDTDAVDVCIADGVCIDAFLKPPMETEEPQIFYNASPSTLS
modifications: PEGylated
[1]
  growth properties of MTO-sgC tumors: did not affect
[2]; GSEA of Quant-seq, treated versus Veh
  signatures related to invasion, tumor progression, and desmoplasia (EMT, myogenesis, angiogenesis, TGFβ signaling, stromal activation, CMS4 subtype): decrease
[2]; GSEA of RNAseq, allografts from MTO-sgPrkci/sgPrkcz
  IFN and allograft rejection signatures: enrichment
[2]; PEGPH20 0.0375 mg/Kg twice a week, 3 weeks
  tumor volume and weight: sensitive
[2]; PEGPH20 0.0375 mg/Kg twice a week, 3 weeks, IHC
  desmoplastic phenotype: expression of HA, collagen, and αSMA+: reverted
[3]
  number of established liver tumors and volume of those tumors: reducing
[3]; PEGPH20 0.0375 mg/kg, αPD-L1 5 mg/kg, aCTLA4 100 ug/dose
  metastatic burden of MTO-sgPrkci/sgPrkcz: markedly decreased
[4]
  Olfm4 (Stem cell marker) IHC: increase
